Test results published in US20050221343A1 (LOS ALAMOS NATIONAL SECURITY, published 2005).
No end group written: not given here.

Target: T1, folding reporter GFP 1-10 (Aequorea victoria, UniProt P42212 1-214 = GFP)
T1 construct: range 1-214; also called folding reporter GFP fragment 1-214; FR
Experiment: co-expression from compatible pET vectors in E. coli, colony fluorescence (split GFP complementation)

T1 sequence (P42212 other isoform, or with tags, fused parts or gaps limits assumed): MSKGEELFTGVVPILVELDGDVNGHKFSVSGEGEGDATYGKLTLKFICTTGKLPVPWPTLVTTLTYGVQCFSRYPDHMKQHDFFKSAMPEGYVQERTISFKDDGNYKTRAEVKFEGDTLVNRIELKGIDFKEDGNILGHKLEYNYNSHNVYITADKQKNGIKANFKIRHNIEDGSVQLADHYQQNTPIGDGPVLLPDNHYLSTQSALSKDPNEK

B1: GFP S11 wild type (peptide)
peptide: KRDHMVLLEFVTAAGITGT
modifications: also: fused to sulfite reductase
notes: also called GFP S11 214-230; wild type GFP S11
B1: no binding.
